Publication PMC10851751, “Characterization and insight mechanism of an acid-adapted β-Glucosidase from Lactobacillus paracasei and its application in bioconversion of glycosides” (Frontiers in Bioengineering and Biotechnology, 2024)

How the values were obtained:
[1] = substrate: O=c1ccc2cc(O[C@@H]3O[C@H](CO)[C@@H](O)[C@H](O)[C@H]3O)c(O)cc2o1; assay: HPLC of glucose or aglycone, Michaelis-Menten fit; assay type: biochemical, Lacticaseibacillus paracasei; conditions: pH 5.5, 30°C, 0.5-15 mM substrate
Text: (§1) HPLC of glucose or aglycone, Michaelis-Menten fit on LpBgla

[2] = substrate: COC(=O)C1=CO[C@@H](O[C@@H]2O[C@H](CO)[C@@H](O)[C@H](O)[C@H]2O)[C@@H]2C(CO)=CC[C@H]12; assay: HPLC of glucose or aglycone, Michaelis-Menten fit; assay type: biochemical, Lacticaseibacillus paracasei; conditions: pH 5.5, 30°C, 0.5-15 mM substrate
Text: as §1

[3] = substrate: OC[C@H]1O[C@@H](Oc2ccc(O)cc2)[C@H](O)[C@@H](O)[C@@H]1O; assay: HPLC of glucose or aglycone, Michaelis-Menten fit; assay type: biochemical, Lacticaseibacillus paracasei; conditions: pH 5.5, 30°C, 0.5-15 mM substrate
Text: as §1

[4] = substrate: OCc1ccccc1O[C@@H]1O[C@H](CO)[C@@H](O)[C@H](O)[C@H]1O; assay: HPLC of glucose or aglycone, Michaelis-Menten fit; assay type: biochemical, Lacticaseibacillus paracasei; conditions: pH 5.5, 30°C, 0.5-15 mM substrate
Text: as §1

[5] = substrate: OC[C@H]1O[C@@H](Oc2cc(O)cc(/C=C/c3ccc(O)cc3)c2)[C@H](O)[C@@H](O)[C@@H]1O; assay: HPLC of glucose or aglycone, Michaelis-Menten fit; assay type: biochemical, Lacticaseibacillus paracasei; conditions: pH 5.5, 30°C, 0.5-15 mM substrate
Text: as §1

purified protein = substrate: O=[N+]([O-])c1ccc(O[C@@H]2O[C@H](CO)[C@@H](O)[C@H](O)[C@H]2O)cc1; assay: purified protein; conditions: pH 5.5, 30°C, 0.5-15 mM substrate, authors note sigmoidal v0 vs [S]

B1: LpBgla (Lacticaseibacillus paracasei ATCC 334) (protein)
chain: MGVVVSNFHLAKITAEEKVKLTSGKDFWTSEHLADKGIPSFRMSDGPHGLRYQALAADHLGINDSVPSTSFPTASASAAAWDPDLIQAMGKAIGLEAQSLGVDMVLGPGVNMKRNPLCGRNFEYFSEDPFLAGKLGAAWINGIQSQGIAACLKHFAANNQENDRLSSDSLVDPTALHEIYLEAFRIAVTESHPEAVMCSYNKINGTYASDNLYLMTQVLRQQFGFGGAVITDWGALNDKVAALNAGTDLEMPGDDHLFDGEALQAYQQGTLKLASLDRAVTKIAEIARKQRPKFQGSREQLLQANGQLAQKIAESAIVLLKNEAALLPLQATDTVAVIGELAKATRFQGAGSSHINASEIVSVLDGLKQKKVSFDYAAGYRLDDQDDSQATAEALALARNHDKVVFVAGLPDNYESEGFDRQNMALPKVQNDLLQAVTAVNPNVIVLLVAGAPVELPWVDQVKAVVNLSLGGERIGAAAANVLTGAVNPSGKLAESYPLKYQDVPSADVYDKKPRSVPYVESTYIGYRYYDKAKVPVAFPFGFGLSYTSFALKNIQLSSDHVTDDQPLTISLQVTNTGQVDGAEVVQVYVQEQQPRPLRPEKSLKAFKKVFVKAGQTVNVALELKAQAFKEWREQTQTWVLPEAQKAIAVGTSVTNIDAVLPVSFTGETFNNFATIPNWYTTLSGKPSVQDFEQLTDQKVPAPHEFVPGEFTRLNTPREMKKHSLLLRLVAWITVKIRTKDYIDKQGPEAKFQQAIVLDTPLIRLAQQASGALKLSMVDRLVAAANHQYVKMIFR
notes: full-length gene (2,388 bp, 796 amino acids), pET28a, His-tagged, E. coli BL21(DE3), Ni-NTA; monomer
Q: Which Km [1] does the source give for B1 here?
A: 3610 ± 80 µM

Q: And the kcat [1]?
A: 2210 ± 38 s⁻¹

Q: What about the kcat/Km [1] of the same protein?
A: 611000 M⁻¹ s⁻¹

Q: And the Km [2]?
A: 2870 ± 50 µM

Q: What about the kcat [2] of the same protein?
A: 2520 ± 23 s⁻¹

Q: What about the kcat/Km [2] of the same protein?
A: 878000 M⁻¹ s⁻¹

Q: What about the Km [3] of the same protein?
A: 1920 ± 30 µM

Q: And the kcat [3]?
A: 3570 ± 72 s⁻¹

Q: What about the kcat/Km [3] of the same protein?
A: 1.86e+06 M⁻¹ s⁻¹

Q: What about the Km [4] of the same protein?
A: 2250 ± 10 µM

Q: And the kcat [4]?
A: 2970 ± 88 s⁻¹

Q: What about the kcat/Km [4] of the same protein?
A: 1.32e+06 M⁻¹ s⁻¹

Q: What about the Km [5] of the same protein?
A: 5710 ± 100 µM

Q: And the kcat [5]?
A: 1730 ± 45 s⁻¹

Q: What about the kcat/Km [5] of the same protein?
A: 303000 M⁻¹ s⁻¹

Q: And the Km (purified protein)?
A: 1440 ± 80 µM

Q: What about the kcat (purified protein) of the same protein?
A: 3982 ± 14 s⁻¹

Q: And the kcat/Km (purified protein)?
A: 2.76e+06 M⁻¹ s⁻¹
